Measurements published in patent US20260250421A1 (BIOCYTOGEN PHARMACEUTICALS BEIJING, published 2026).

T1: His-tagged cynomolgus monkey PTK7 protein (cynomolgus monkey, UniProt A0A2K5VNI5 39-712)
T1 construct: Bought protein; also called cPTK7-His; ACRO Biosystems Cat# PT7-C52H3; not shown: His tag
T1 sequence: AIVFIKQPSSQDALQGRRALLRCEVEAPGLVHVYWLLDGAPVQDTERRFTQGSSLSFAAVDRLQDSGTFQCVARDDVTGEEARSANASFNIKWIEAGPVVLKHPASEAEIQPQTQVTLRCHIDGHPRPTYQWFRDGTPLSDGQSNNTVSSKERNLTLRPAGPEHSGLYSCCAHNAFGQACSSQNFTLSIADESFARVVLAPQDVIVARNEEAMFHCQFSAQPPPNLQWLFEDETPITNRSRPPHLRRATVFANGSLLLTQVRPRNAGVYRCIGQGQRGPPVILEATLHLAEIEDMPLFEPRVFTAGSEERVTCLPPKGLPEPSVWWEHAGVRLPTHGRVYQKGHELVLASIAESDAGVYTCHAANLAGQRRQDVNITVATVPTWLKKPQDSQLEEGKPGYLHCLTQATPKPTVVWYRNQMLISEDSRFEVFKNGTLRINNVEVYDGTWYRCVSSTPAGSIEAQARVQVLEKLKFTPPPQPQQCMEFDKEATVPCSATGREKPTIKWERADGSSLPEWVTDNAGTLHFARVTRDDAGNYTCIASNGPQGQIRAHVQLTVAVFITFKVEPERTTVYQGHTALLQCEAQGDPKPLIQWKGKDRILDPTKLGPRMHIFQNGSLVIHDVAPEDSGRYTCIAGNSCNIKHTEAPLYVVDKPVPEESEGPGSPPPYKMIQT

T2: His-tagged dog PTK7 protein (dog, UniProt Q13308 31-703 (human entry))
T2 construct: also called dPTK7-His
T2 chain: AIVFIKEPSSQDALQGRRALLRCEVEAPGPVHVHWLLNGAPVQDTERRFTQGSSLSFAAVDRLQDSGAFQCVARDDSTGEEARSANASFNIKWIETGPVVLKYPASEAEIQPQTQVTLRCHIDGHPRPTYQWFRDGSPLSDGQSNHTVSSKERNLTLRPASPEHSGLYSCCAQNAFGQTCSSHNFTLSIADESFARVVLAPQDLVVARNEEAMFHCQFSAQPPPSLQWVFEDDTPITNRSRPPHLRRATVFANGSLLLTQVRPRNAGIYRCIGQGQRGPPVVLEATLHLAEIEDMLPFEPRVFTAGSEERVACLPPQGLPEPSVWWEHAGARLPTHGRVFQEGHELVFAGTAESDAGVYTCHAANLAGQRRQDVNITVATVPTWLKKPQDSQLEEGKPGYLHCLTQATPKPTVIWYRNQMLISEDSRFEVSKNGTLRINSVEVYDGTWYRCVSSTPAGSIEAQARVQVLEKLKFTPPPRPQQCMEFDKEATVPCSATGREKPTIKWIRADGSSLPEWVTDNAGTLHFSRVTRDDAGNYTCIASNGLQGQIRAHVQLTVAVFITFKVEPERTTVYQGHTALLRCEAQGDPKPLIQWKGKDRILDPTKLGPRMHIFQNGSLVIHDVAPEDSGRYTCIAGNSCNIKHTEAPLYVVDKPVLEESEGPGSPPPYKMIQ

T3: human PTK7 on human cancer cell lines (human, UniProt Q13308 31-1070)
T3 construct: Endogenous PTK7 of human tumour cell lines; also called PTK7 on A-431, NCI-H520, NCI-N87, SK-OV-3, BT-20, HCC1954, NCI-H226, NCI-H358, HCT116, PC-3, NCI-H292, NCI-H1975 cells
T3 sequence: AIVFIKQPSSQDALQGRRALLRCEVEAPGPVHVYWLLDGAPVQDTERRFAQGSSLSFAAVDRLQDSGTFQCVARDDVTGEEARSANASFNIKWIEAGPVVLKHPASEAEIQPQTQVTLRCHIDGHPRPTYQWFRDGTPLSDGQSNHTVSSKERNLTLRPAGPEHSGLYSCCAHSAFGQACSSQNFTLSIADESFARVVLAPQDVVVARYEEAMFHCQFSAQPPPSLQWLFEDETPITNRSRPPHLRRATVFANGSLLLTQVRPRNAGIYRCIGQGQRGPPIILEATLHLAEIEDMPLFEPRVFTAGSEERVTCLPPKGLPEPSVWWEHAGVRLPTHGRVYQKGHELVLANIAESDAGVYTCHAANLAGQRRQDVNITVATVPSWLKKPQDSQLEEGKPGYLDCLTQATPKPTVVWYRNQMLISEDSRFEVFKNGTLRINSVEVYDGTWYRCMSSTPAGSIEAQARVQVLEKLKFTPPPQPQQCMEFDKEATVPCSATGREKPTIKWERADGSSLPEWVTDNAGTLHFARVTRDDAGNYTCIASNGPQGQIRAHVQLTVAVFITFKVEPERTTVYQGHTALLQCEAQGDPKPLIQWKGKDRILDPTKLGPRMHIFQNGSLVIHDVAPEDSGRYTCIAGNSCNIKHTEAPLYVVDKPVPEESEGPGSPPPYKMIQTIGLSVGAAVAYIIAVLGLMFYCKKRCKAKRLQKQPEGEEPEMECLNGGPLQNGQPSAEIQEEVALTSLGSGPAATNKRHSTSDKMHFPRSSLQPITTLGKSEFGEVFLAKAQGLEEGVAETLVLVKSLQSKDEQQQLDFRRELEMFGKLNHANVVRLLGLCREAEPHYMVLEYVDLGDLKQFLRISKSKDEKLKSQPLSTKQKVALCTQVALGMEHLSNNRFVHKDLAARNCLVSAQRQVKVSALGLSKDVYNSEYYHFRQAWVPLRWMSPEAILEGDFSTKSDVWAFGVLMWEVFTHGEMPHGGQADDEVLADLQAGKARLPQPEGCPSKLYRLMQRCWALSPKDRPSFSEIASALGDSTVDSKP


Experiments:
[1] = molecular target: T1, His-tagged cynomolgus monkey PTK7 …; experiment: SPR Biacore 8K, Ab on Protein A chip
Procedure: (§1) Purified anti-PTK7 antibodies were diluted to 1 μg/mL and then injected into the Biacore™ 8K biosensor at 10 μL/min for about 50 seconds to achieve a desired protein density (e.g., about 50 response units (RU)). The His-tagged PTK7 protein at a concentration of 200 nM or 0 nM was then injected at 30 μL/min for 180 seconds. Dissociation was monitored for 400 seconds. The chip was regenerated after the last injection of each titration with glycine (pH 2.0, 30 μL/min for 30 seconds).

[2] = molecular target: T2, His-tagged dog PTK7 protein; experiment: SPR Biacore 8K, Ab on Protein A chip
Procedure: as §1

[3] = molecular target: T3, human PTK7 on human cancer cell lines; experiment: flow cytometry, PC-3 cells, Ab 5 ug/mL
Procedure: The binding activity of anti-PTK7 antibodies to cancer cell lines was verified by flow cytometry. […] Purified anti-PTK7 antibody with a concentration of 5 μg/mL was added to each well and was incubated at 4° C. for 30 minutes. […] The cells were collected, and the mean fluorescence intensity (MFI) was determined. Human IgG1 was used as ISO control.

Row | Binder | Kd [1] [nM] | koff [1] [s⁻¹] | kon [1] [M⁻¹ s⁻¹] | Kd [2] [nM] | koff [2] [s⁻¹] | kon [2] [M⁻¹ s⁻¹] | MFI [3]
1 | 3C4 (antibody, V domains shown, also called anti-PTK7 antibody 3C4) VH: QVQLEQSRAEVKKPGESLRISCKGSGYSFTSYWISWVRQMPGKGLEWMGRIDPSDSYTNYNPSFQGHVTISADKSISTAYLQWSSLKASDTAMYYCARRDGSYFDFDYWGQGTLVTVSS VL: not shown | 23.2 | 0.00187 | 80600 | 8.48 | 0.00399 | 471000 | 66700
2 | 1A7 (antibody, human IgG1, V domains shown, also called anti-PTK7 antibody 1A7) VH: QVQLVESGGGVVQPGRSLRLSCAASGFTFSNYGMHWVRQAPGKGLEWVAVIYYDGSNKFYADSVKGRFTISRDNSKNTLYLQMSSLRAEDTAVYYCARDVAPPGSRAEYFHHWGQGTLVTVSS VL: not shown | 17.9 | 0.000733 | 41100 | 2.3 | 0.000133 | 58000 | 32500
3 | 2F5 (antibody, V domains shown, also called anti-PTK7 antibody 2F5) VH: QVQLVESGGGVVQPGRSLRLSCVASGFTFSNYGMHWVRQAPGKGLEWVAIIYYDGSNKYYADSVKGRFTISRDNSKNTLYLQMNSLRAEDTAVYYCARDVAAAGSRAEYLHHWGQGTLVTVSS VL: not shown | 35.2 | 0.00146 | 41600 | 11.1 | 0.000563 | 50700 | 32400

The next lines start with the values.

Row | Kd [1] [nM] | koff [1] [s⁻¹] | kon [1] [M⁻¹ s⁻¹] | Kd [2] [nM] | koff [2] [s⁻¹] | kon [2] [M⁻¹ s⁻¹] | MFI [3] | Binder
4 | 3.95 | 0.000481 | 122000 | 11.6 | 0.00171 | 147000 | 94600 | 3E6 (antibody, V domains shown, also called anti-PTK7 antibody 3E6) VH: QVQLVESGAEVKKPGESLRISCRGSGYSFTSYWISWVRQMPGKGLEWMGRIDPSDSYTKYSPSFQGHVTISADKSISTAYLQWSSLKASDTAMYYCARRDGDYFDFDYWGQGTLVTVSS VL: not shown
5 | 18.4 | 0.00131 | 71200 | 14.5 | 0.00123 | 84600 | 67200 | 1A11 (antibody, V domains shown, also called anti-PTK7 antibody 1A11) VH: QVQLVQSGPGLVKPSETLSLTCTVSGGSINSYYWNWIRQPPGKGLEWIGYIYYSGSTNYNPSLKSRVTISVDTSKNQFSLKLSSVTAADTAVYYCARDPHDYIRGHFDLWGRGTLFTVSS VL: not shown
6 | 10.8 | 0.000439 | 40700 | 3.43 | 0.000167 | 48600 | 60700 | 2A5 (antibody, V domains shown, also called anti-PTK7 antibody 2A5) VH: QVQLVQSGGGVVQPGRSLRLSCAASGFTFSNYGMHWVRQAPGKGLEWVAVIWYDGRNKYYADSVKGRFTISRDNSKNTLYLQMNSLRAEDTAVYYCARDVAPAGSRAEYFQNWGQGTLVTVSS VL: not shown
7 | 3.08 | 0.000177 | 57400 | 0.898 | 5.47e-05 | 60900 | 73000 | 2D11 (antibody, V domains shown, also called anti-PTK7 antibody 2D11) VH: QVQLVESGGGVVQPGRSLRLSCAASGFTFSSYGMHWVRQAPGKGLEWVAVIFYDGSNKYYADSVKGRFTISRDNSKNTLYLQMNSLRAEDTSVYYCARDVAAPGSRAEYFQNWGQGTLVTVSS VL: not shown
8 | 30.2 | 0.00949 | 314000 | 21.2 | 0.00927 | 437000 | 34900 | 1F2 (antibody, V domains shown, also called anti-PTK7 antibody 1F2) VH: QVQLVQSGGGLVQPGGSLRLSCAASGFTFSRYEMNWVRQAPGKGLEWVSYINSIGSAINYADSVKGRFTISRDNAKNSLYLQMRSLRAEDTAVYYCVREDNWNPGYWGQGTLVTVSS VL: not shown
